Results: patent publication US20140056903A1 (Regeneron, published 2014)
Each block holds one binder with its values, some of them ahead of it.

Experiments:
[1] = target: T1, human GFRα3 expressed with a C-terminal myc-myc-hexahistidine tag (human, UniProt O60609 32-374, biotinylated (sites not given) in ELISA format 2 and in the Octet cross-competition; not in SPR); experiment: SPR, Ab captured, 37C
T1 construct: also called hGFRα3-mmh; hGFRα3-mmH
Summary of the method: (§1)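 Rate constants (ka, kd) came from 1:1 fits of 3-fold analyte dilution series (100–3.7 nM Fc-tagged, 200–7.4 nM mmh-tagged) flowed over antibody captured via anti-IgG on CM5. Buffers were HBS-EP or PBS with 0.05% P20, pH 7.4. KD and half-life were derived from kd/ka and ln2/(60*kd).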

[2] = target: T2, monkey GFRα3 expressed with a C-terminal myc-myc-hexahistidine tag (monkey (Mf), UniProt O60609 32-374 (human entry), limits assumed); experiment: SPR, Ab captured, 37C
T2 construct: also called MfGFRα3-mmh; MfGFRα3-mmH
T2 chain: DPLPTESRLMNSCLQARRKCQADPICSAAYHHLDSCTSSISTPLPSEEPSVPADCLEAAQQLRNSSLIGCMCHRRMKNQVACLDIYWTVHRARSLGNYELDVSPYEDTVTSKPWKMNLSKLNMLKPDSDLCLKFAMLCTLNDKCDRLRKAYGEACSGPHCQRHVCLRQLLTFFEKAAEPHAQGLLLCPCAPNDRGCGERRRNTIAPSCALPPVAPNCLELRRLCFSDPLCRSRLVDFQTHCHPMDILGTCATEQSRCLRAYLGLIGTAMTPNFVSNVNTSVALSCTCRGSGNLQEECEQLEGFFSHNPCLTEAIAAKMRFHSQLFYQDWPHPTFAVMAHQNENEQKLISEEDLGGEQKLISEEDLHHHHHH
Summary of the method: as §1

[3] = target: T1, human GFRα3 expressed with a C-terminal …; experiment: Octet cross-competition; biotin-hGFRα3-mmH pre-saturated with first antibody H4H2292S
Method: (§2) A cross-competition assay was conducted to assess the ability of select antibodies to compete with one another for binding to human GFRα3 using an Octet RED384 biosensor (Fortebio Inc.). The entire experiment was performed at 25° C. with the flow rate of 1000 rpm in Octet HBST buffer (0.01 M HEPES pH7.4, 0.15M NaCl, 3 mM EDTA, 0.05% v/v Surfactant P20, 0.1 mg/mL BSA). To assess whether 2 antibodies were able to compete with one another for binding to their respective epitopes on biotinylated recombinant human GFRα3 expressed with a C-terminal myc-myc-hexahistidine tag (biotin-hGFRα3-mmH; SEQ ID:370), around ˜1.2 nm of biotin-hGFRα3-mmH was first captured onto streptavidin-coated Octet sensor tips (Fortebio Inc, #18-5019) by submerging the tips for 1 minute into a 10 μg/mL solution of biotin-hGFRα3-mmH. The antigen coated sensor tips were then placed into wells containing 25 μg/mL solution of a first anti-GFRα3 monoclonal antibody for 4 minutes to saturate the biotin-hGFRα3-mmH surface. The sensor tips were then subsequently dipped into wells containing 25 μ/mL solution of a second anti-GFRα3 monoclonal antibody. The sensor tips were washed in Octet HBST buffer in between every step of the experiment. The real-time binding response was monitored during the course of the experiment and the binding response at the end of every step was recorded as shown in FIG. 9. The response of mAb-2 binding to biotin-hGFRα3-mmH pre-complexed with the first antibody was compared and competitive/non-competitive behavior of different anti-GFRα3 monoclonal antibodies was determined.

[4] = target: T1, human GFRα3 expressed with a C-terminal …; experiment: Octet cross-competition; biotin-hGFRα3-mmH pre-saturated with first antibody H4H2296S
Method: as §2

[5] = target: T1, human GFRα3 expressed with a C-terminal …; experiment: Octet cross-competition; biotin-hGFRα3-mmH pre-saturated with first antibody H4H2212N
Method: as §2

[6] = target: T1, human GFRα3 expressed with a C-terminal …; experiment: Octet cross-competition; biotin-hGFRα3-mmH pre-saturated with first antibody H4H2350P
Method: as §2

[7] = target: T1, human GFRα3 expressed with a C-terminal …; experiment: Octet cross-competition; biotin-hGFRα3-mmH pre-saturated with first antibody H4H2357S
Method: as §2

- Kd [1]: 1.94 nM
- koff [1]: 0.000249 s⁻¹
- kon [1]: 128000 M⁻¹ s⁻¹
- t1/2 [1]: 46 min
- Kd [2]: 2.18 nM
- koff [2]: 0.000195 s⁻¹
- kon [2]: 89500 M⁻¹ s⁻¹
- t1/2 [2]: 59 min
- binding response of second antibody (nm) [3]: 0.11 nm
- binding response of second antibody (nm) [4]: 1.87 nm
- binding response of second antibody (nm) [5]: 1.76 nm
- binding response of second antibody (nm) [6]: 1.74 nm
- binding response of second antibody (nm) [7]: 1.92 nm
B2: H4H2292S (antibody, human IgG4, V domains shown)
VH: EVQLVESGGGVVQPGRSLRLSCAASGFTFSSYGMHWVRQAPGKGLEWVSFIWYDGSNKYYADSVKGRFTISRDNSKNTLYLQMNSLTAEDTAVYYCARRGILTGTTAFDIWGQGTMVTVSS
VL: DIQMTQSPSSLSASVGDRVTITCRASQSISSYLNWYQQKPGKAPKLLIYAASSLQSGVPSRFSGSGSGTDFTLTIRSLIPEDFATYYCQQTYNTPFTFGPGTKVEIK
notes: human IgG4 Fc (H4H)

- Kd [1]: 0.118 nM
- koff [1]: 0.000139 s⁻¹
- kon [1]: 1.18e+06 M⁻¹ s⁻¹
- t1/2 [1]: 83 min
- Kd [2]: 0.117 nM
- koff [2]: 6.53e-05 s⁻¹
- kon [2]: 557000 M⁻¹ s⁻¹
- t1/2 [2]: 177 min
- binding response of second antibody (nm) [3]: 0.34 nm
- binding response of second antibody (nm) [4]: 2.01 nm
- binding response of second antibody (nm) [5]: 0.08 nm
- binding response of second antibody (nm) [6]: 2.06 nm
- binding response of second antibody (nm) [7]: 2 nm
B4: H4H2352S (antibody, human IgG4, V domains shown)
VH: EVQLVQSGAEVKKPGASVKVSCKASGYTFTNYGITWVRQAPGQGLEWMGWISAYNGNTGYAQKFQGRVTMTTDTSTSTAYMELRSLRSDDTAVYYCAREDYDFWRAFDIWGQGTMVTVSS
VL: EIVLTQSPGTLSLSPGERATLSCRASQSVSSTYLAWLQQKPGQAPRLLIYGASSRATGIPDRFSGSGSGTDFTLTINRLEPEDFAVYYCQQYAYSPYTFGQGTKLEIK
notes: human IgG4 Fc (H4H); also called H4H2352S-1

- Kd [1]: 7.12 nM
- koff [1]: 0.0021 s⁻¹
- kon [1]: 295000 M⁻¹ s⁻¹
- t1/2 [1]: 6 min
- Kd [2]: 7.86 nM
- koff [2]: 0.00135 s⁻¹
- kon [2]: 172000 M⁻¹ s⁻¹
- t1/2 [2]: 9 min
- binding response of second antibody (nm) [3]: 2.43 nm
- binding response of second antibody (nm) [4]: 0.06 nm
- binding response of second antibody (nm) [5]: 2.38 nm
- binding response of second antibody (nm) [6]: 2.23 nm
- binding response of second antibody (nm) [7]: 0.04 nm
B5: H4H2357S (antibody, human IgG4, V domains shown)
VH: EVQLVESGGGLVQPGGSLRLSCAASTFTFSSYAMTWVRQAPGKGLEWVSSISGSGDSTYYADSVKGRFTISRDNSKNTLFLQMNSLRAEDTAVYYCAKKDGPGRYYVRYGMDVWGQGTTVTVSS
VL: DIQMTQSPSSVSASVGDRVTITCRASQGISSWLAWYQQKPGKAPKLLIYTTSSLQSGVPSRFSGSGSGTDFTLTISSLQPEDFATYYCQQANSFPLTFGGGTKVDIK
notes: human IgG4 Fc (H4H)

More lines, now with the values behind:

B1: H4H2355S (antibody, human IgG4, V domains shown)
VH: EVQLVESGGGLVQPGGSLRLSCAASGFTFSSYAMSWVRQVPGKGLEWVSAISGSGDNTYNAESVKGRFTISRDNSKNMLYLQMNSLRAEDTAVYYCAKTKFSSSLLFDYWGQGTLVTVSS
VL: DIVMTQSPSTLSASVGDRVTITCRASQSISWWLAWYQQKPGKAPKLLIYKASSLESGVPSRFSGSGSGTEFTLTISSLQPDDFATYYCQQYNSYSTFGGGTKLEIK
notes: human IgG4 Fc (H4H)
- Kd [1]: 4.37 nM
- koff [1]: 0.00123 s⁻¹
- kon [1]: 281000 M⁻¹ s⁻¹
- t1/2 [1]: 9 min
- Kd [2]: 5.29 nM
- koff [2]: 0.000913 s⁻¹
- kon [2]: 173000 M⁻¹ s⁻¹
- t1/2 [2]: 13 min
- binding response of second antibody (nm) [3]: 2.07 nm
- binding response of second antibody (nm) [4]: 0.02 nm
- binding response of second antibody (nm) [5]: 2.05 nm
- binding response of second antibody (nm) [6]: 1.77 nm
- binding response of second antibody (nm) [7]: 0 nm

B3: H4H2342P (antibody, human IgG4, V domains shown)
VH: EVQLLESGGGLVQPGGSLRLSCAASGFTFSTYAMSWVRQAPGKGLEWVSAIRGNGVNTYYGDSMKGRFTISRDNSKDTLYLQMNSLRAEDTAVYYCAKNKWELLVFEYWGQGTLVTVSS
VL: DIQMTQSPSSLSASVGDRVTITCRASQDISNYLAWYQQKPGKVPKLLIYAASTLQSGVPFRFSGSGSGTDFTLTISSLQPEDVATYYCQKYNSAPPFGPGTKVDIK
notes: human IgG4 Fc (H4H)
- Kd [1]: 2.03 nM
- koff [1]: 0.000671 s⁻¹
- kon [1]: 330000 M⁻¹ s⁻¹
- t1/2 [1]: 17 min
- Kd [2]: 11.1 nM
- koff [2]: 0.00166 s⁻¹
- kon [2]: 150000 M⁻¹ s⁻¹
- t1/2 [2]: 7 min
- binding response of second antibody (nm) [3]: 2.16 nm
- binding response of second antibody (nm) [4]: 0.03 nm
- binding response of second antibody (nm) [5]: 2.17 nm
- binding response of second antibody (nm) [6]: 1.8 nm
- binding response of second antibody (nm) [7]: -0.01 nm

B6: H4H2350P (antibody, human IgG4, V domains shown)
VH: QVQLQESGPGLVKPSETLSLTCTVSGGSISTYYWSWFRQPPGKGLEWIGYIYYSGSTNHNPSLKSRVTISVDTSKNQFSLKLRSVTAADTAVYYCARVGPVGWGSWGNFDYWGQGTLVTVSS
VL: DIQLTQSPSFLSASVGDRVTITCWASQGISSYLAWSQQKPGKAPKLLIYAASTLQSGVPSRFSGSGSGTEFTLTISSLQPEDFATYYCQQLNSYPWTFGQGTKVEIK
notes: human IgG4 Fc (H4H)
- Kd [1]: 9.61 nM
- koff [1]: 0.00128 s⁻¹
- kon [1]: 134000 M⁻¹ s⁻¹
- t1/2 [1]: 9 min
- Kd [2]: 12 nM
- koff [2]: 0.000896 s⁻¹
- kon [2]: 74800 M⁻¹ s⁻¹
- t1/2 [2]: 13 min
- binding response of second antibody (nm) [3]: 1.53 nm
- binding response of second antibody (nm) [4]: 1.27 nm
- binding response of second antibody (nm) [5]: 1.36 nm
- binding response of second antibody (nm) [6]: 0.25 nm
- binding response of second antibody (nm) [7]: 1.35 nm
